Reference: the nanobody polyreactivity screen of Harvey et al. (2022)

Experiment: yeast display, Sf9 membrane polyspecificity reagent, FACS + sequencing; frameworks hold sequencing errors
Procedure, shortened: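 Using colony PCR, genes from sorted yeast display clones were amplified, then sequenced on MiSeq at 2 × 250 and filtered by CDR length. The clones had been stained with 10% biotinylated, detergent-solubilized Sf9 membrane reagent for 1 hour at 4 °C and sorted by FACS into low and high (top ~1%) gates on anti-HA and streptavidin fluorescence. Polyreactivity labels come from the gate of origin.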

Sequence | polyreactivity (PSR sort gate)
QVQLVESGGGVVQAGGSLRLSCAASGFTFAQYAMGWYRQAPGKERELVATITRGGITYYADSVKGRFTISRDNAKNTVYLQMNSLKPEDTAVYYCAARVVPPYSRRDDYWGQGTQVTVSS | high polyreactivity
QVQLVESGGGVVQAGGSLRLSCAASGFTFVYNAMGWYRQAPGKEREFVAAISGRGGSTYYADSVKGRFTISRDNAKNTVYLQMNSLKPEDTAVYYCATTYSWYYVPYKTHIYYYWGQGTQVTVSS | low polyreactivity
QVQLVESGGGVVQAGGSLRLSCAASGITFSRYAMGWYRQAPGKERELVAAISGSGGRTYYADSVKGRFTISRDNAKNTVYLQMNSLKPEDTAVYYCARESSYYKYYYWGQGTQVTVSS | high polyreactivity
QVQLVESGGGVVQAGGSLRLSCAASGNIFAVYAMGWYREAPGKERELVAAIRKSGATTYYADSVKGRFTISRDNAKNTVYLQIHSLKPEDTAVYYCAARTFKDAGTAYGSWGQGTQVTVSS | high polyreactivity
QVQLVESGGGVVQAGGSLRLSCAASGRIIPYYAMGWYRPAPGTERELVAAISWTDGTTFYADSVKGRFTISRDNAKNTVYLQMNSLKPEDTAVYYCAASVYQDKGYDYWGQGTQVTVSS | low polyreactivity
QVQLVESGGGVVQAGGSLRLSCAASGRISDVYVMGWYRQAPGKERELVAAITWSGGDTYYADSVKGRFTISRDNAKNTVYLQMNSLKPEDTAVYYCNADTGKWGGNGWYEFDYWGQGTQVTVSS | low polyreactivity
QVQLVESGGGVVQAGGSLRLSCAASGRTFPYNPMGWYRQAPGKERELVAAISGRGGSTYYADSVKGRFTISRDNAKNTVYLQMNSLKPEVSAVYYCDARLPWSYYRTQGYNYWGQGTQVTVSS | high polyreactivity
QVQLVESGGGVVQAGGSLRLSCAASGRTSYWYAKGCYRQAPGKERELVADISWSGGSTYYADSVKGRFTISRDNAKNTVYLQMNSMKPEDTAVYYCNAAEQKYSIYYAFDTGPYDYWGQGTQVTVSS | low polyreactivity
QVQLVESGGGVVQAGGSLRLSCAASGSIFAGNAMGGSRQAPGKERELVAAITFSAGRTSYADSVKGRFTISRDNAKNTVYFQMNSLKPEDTAVYYCNALLTVRHVKSDYDYWGQGTQVTVSS | low polyreactivity
QVQLVESGGGVVQAGGSLRLSCAASGSIFRQNTMGWYRQAPGKERELVAAISSGGSTYYADSVKGRFTISRDNAKNTVYLQMNSPKPEDTAVYYCAAYHSFVWGDDYWGQGTQVTVSS | low polyreactivity
QVQLVESGGGVVQAGGSLRLSCAASGSILNNYAMGWYRPAPGKERELVAAISSSGGTNYADSVKGRFTISRDNAKNTVFLQMNSLKPEDTAVYYCNADVLDGGYVYWGQGTQVTVSS | low polyreactivity
QVQLVESGGGVVQAGGSLRLSCAASGSIYSQYAMGWYRQAPGTERELVASISRRGGRTYYADSVKGRFTISRDNAKNTVYLQMNSLKPEETAVYYCAALDTAGPYNTLDIYDHWGQGTQVTVSS | high polyreactivity
QVQLVESGGGVVQAGGSLRLSCAASGSTFGHNAMGWYRQAPGKERELVAVITSGGSTYYADSVKGRFTISRDNAKNTVYLQMNSLKPEDTAVYFCATDGGNSATVRYVASDYWGQGTQVTVSS | high polyreactivity
QVQLVESGGGVVQAGGSLRLSCAASGSTFHYYAMGWYRQAHGKERELVAAISYSSGSTYYADSVKGRVTISRDNAKNHVYLQMISLKPEDTAVYYCATESYSYYIHTTYYYWGQGTQVTLSS | low polyreactivity
QVQLVESGGGVVQAGGSLRLSCAASGSTFYLYDMGWYRQEPGKERELVATITSGTSTTYADSVKGRYTISRDNAKNTVYLQMNSLKPEDTAVYYCNATDVGIITVGYGHGGYYWGQGTQVTVSS | low polyreactivity
QVQLVESGGGVVQAGGSLRLSCAASGSTLARYAMGWYRQSPGKERELVAAISSDGRTYYADSVKGRFTISRDNAKNTVYLQMNSLKPEDTAVYYCSAVGKPGVYQEGDYWGQGTQVTVSS | high polyreactivity
QVQLVESGGGVVQAGGSLRLSCAASGYIFFANAMGWYRQAPGKERELVAAISSDGRTYYADSVKGRFTISRDNANNTVYLQMNSLKPEDTAVYYSADYFSGLTYGYYVAGYDYWGQGTQVTVSS | low polyreactivity
